# Laboratory results taken from PMC10681739, “High-throughput data and modeling reveal insights into the mechanisms of cooperative DNA-binding by transcription factor proteins”.
# T1: ETS1 (Homo sapiens, UniProt P14921)
# T1 sequence: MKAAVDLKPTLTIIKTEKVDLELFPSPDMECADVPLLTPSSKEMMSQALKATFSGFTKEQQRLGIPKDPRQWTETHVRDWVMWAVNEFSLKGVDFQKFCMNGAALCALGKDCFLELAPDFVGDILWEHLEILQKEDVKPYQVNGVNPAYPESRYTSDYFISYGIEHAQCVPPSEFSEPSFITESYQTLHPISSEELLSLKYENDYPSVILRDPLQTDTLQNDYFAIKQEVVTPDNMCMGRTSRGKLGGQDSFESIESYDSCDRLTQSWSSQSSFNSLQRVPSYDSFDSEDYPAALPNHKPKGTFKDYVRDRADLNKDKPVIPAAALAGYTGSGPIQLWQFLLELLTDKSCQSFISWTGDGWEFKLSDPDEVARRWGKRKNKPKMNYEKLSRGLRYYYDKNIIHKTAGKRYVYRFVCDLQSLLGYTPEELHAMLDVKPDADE
# B1: Table S2 B row 2956 (dsDNA)
# DNA 1: CTCTGAAGGAAGTGATGTTAGACGGCTGTAGGTGGT
# DNA 2: ACCACCTACAGCCGTCTAACATCACTTCCTTCAGAG
# B2: Table S2 B row 935 (dsDNA)
# DNA 1: CAGTGGCAGTAGCCGTTTGGCCCTTCCTGCCCTGGG
# DNA 2: CCCAGGGCAGGAAGGGCCAAACGGCTACTGCCACTG
# B3: Table S2 B row 2446 (dsDNA)
# DNA 1: GGAACGGAGGCGGAAGGGGCCCTTCGGCGACGACGT
# DNA 2: ACGTCGTCGCCGAAGGGCCCCTTCCGCCTCCGTTCC
# B4: Table S2 B row 1508 (dsDNA)
# DNA 1: GCTCCCTTCCTGAGCCTCTGCTGGCCTCACCAGAGG
# DNA 2: CCTCTGGTGAGGCCAGCAGAGGCTCAGGAAGGGAGC
# B5: Table S2 B row 1484 (dsDNA)
# DNA 1: CCCGGAAACTCAACTGCCCACTGCAGCGCCCGCCAT
# DNA 2: ATGGCGGGCGCTGCAGTGGGCAGTTGAGTTTCCGGG
# B6: Table S2 B row 1447 (dsDNA)
# DNA 1: GCAGAAGGAAGTGTGGCTTGGCGCCGTGGCTCACAC
# DNA 2: GTGTGAGCCACGGCGCCAAGCCACACTTCCTTCTGC
# B7: Table S2 B row 2389 (dsDNA)
# DNA 1: TCTGCACATCCGAGAAGCCTCCGTGCTTTGCTGCCA
# DNA 2: TGGCAGCAAAGCACGGAGGCTTCTCGGATGTGCAGA
# B8: Table S2 B row 2233 (dsDNA)
# DNA 1: GCGCCATTTCCGCTGCGCAAGGCACCTCAGGCCCTG
# DNA 2: CAGGGCCTGAGGTGCCTTGCGCAGCGGAAATGGCGC
# B9: Table S2 B row 3361 (dsDNA)
# DNA 1: GAACTACGTTTCCCGGCATGCACTGCAGGCCGCCGG
# DNA 2: CCGGCGGCCTGCAGTGCATGCCGGGAAACGTAGTTC
# B10: Table S2 C row 51 (dsDNA)
# DNA 1: CTTGGGAGTCCCTGCCGCGGTGACTCCCTGGGAGCT
# DNA 2: AGCTCCCAGGGAGTCACCGCGGCAGGGACTCCCAAG
# B11: Table S2 C row 184 (dsDNA)
# DNA 1: CCAGCTAAGCGAGGGGCCGCAGGGAGCGCGGCCTCG
# DNA 2: CGAGGCCGCGCTCCCTGCGGCCCCTCGCTTAGCTGG
# B12: Table S2 C row 98 (dsDNA)
# DNA 1: AAAACCATCTTTAGGACCGCGGCCCCTTTAAGCGGC
# DNA 2: GCCGCTTAAAGGGGCCGCGGTCCTAAAGATGGTTTT
# B13: Table S2 C row 16 (dsDNA)
# DNA 1: AAAAGCCCATGGGCACCCACAGCTTTGTCACAGTGC
# DNA 2: GCACTGTGACAAAGCTGTGGGTGCCCATGGGCTTTT
# B14: Table S2 C row 199 (dsDNA)
# DNA 1: AGCTCAGGCACCAGCTGAGGTTTGGCATTTGCTGGC
# DNA 2: GCCAGCAAATGCCAAACCTCAGCTGGTGCCTGAGCT
# B15: Table S2 C row 122 (dsDNA)
# DNA 1: AGAGACAGTAGCAGCCGCGGTGACTGGCGGCCTCCT
# DNA 2: AGGAGGCCGCCAGTCACCGCGGCTGCTACTGTCTCT
# B16: Table S2 C row 62 (dsDNA)
# DNA 1: GAGCATCTTGAGGTCTGTGGTTCAGCTACCAGCCCC
# DNA 2: GGGGCTGGTAGCTGAACCACAGACCTCAAGATGCTC
# B17: Table S2 C row 143 (dsDNA)
# DNA 1: CGGCCCCGCTGAGGGGCCGCAAGGACGAGGACGCCT
# DNA 2: AGGCGTCCTCGTCCTTGCGGCCCCTCAGCGGGGCCG
# B18: Table S2 C row 25 (dsDNA)
# DNA 1: CCAGCCCGGCCTCGGACCGCGGCACCCCTCCTGGCC
# DNA 2: GGCCAGGAGGGGTGCCGCGGTCCGAGGCCGGGCTGG
# Target: T1, ETS1
# Assay: gcPBM; 1 nM ETS1
# Settings: tags: N-terminal GST (pDEST15), kept (PMC6008103); label: surface-attached array probe
row,Binder,binding signal
1,B1,"910 PBM fluorescence, median of replicate spots"
2,B2,"882 PBM fluorescence, median of replicate spots"
3,B3,"869 PBM fluorescence, median of replicate spots"
4,B4,"849 PBM fluorescence, median of replicate spots"
5,B5,"830 PBM fluorescence, median of replicate spots"
6,B6,"817 PBM fluorescence, median of replicate spots"
7,B7,"803 PBM fluorescence, median of replicate spots"
8,B8,"18700 PBM fluorescence, median of replicate spots"
9,B9,"787 PBM fluorescence, median of replicate spots"
10,B10,"261 PBM fluorescence, median of replicate spots"
11,B11,"274 PBM fluorescence, median of replicate spots"
12,B12,"284 PBM fluorescence, median of replicate spots"
13,B13,"288 PBM fluorescence, median of replicate spots"
14,B14,"296 PBM fluorescence, median of replicate spots"
15,B15,"296 PBM fluorescence, median of replicate spots"
16,B16,"296 PBM fluorescence, median of replicate spots"
17,B17,"300 PBM fluorescence, median of replicate spots"
18,B18,"312 PBM fluorescence, median of replicate spots"
